Target: the molecule itself
Experiment: SEC; Superose 6 Increase 10/300 GL, 4 °C; MalT pre-incubated at 20 °C for 20 min in buffer I; run in buffer E with 1 mM maltotriose and 0.4 mM ATP; self-association of MalT

B1: MalT-E140A, N-terminally His-tagged (natural protein, Escherichia coli, UniProt P06993 1-901, looked up)
chain: MLIPSKLSRPVRLDHTVVRERLLAKLSGANNFRLALITSPAGYGKTTLISQWAAGKNDIGWYSLDEGDNQQERFASYLIAAVQQATNGHCAICETMAQKRQYASLTSLFAQLFIELAEWHSPLYLVIDDYHLITNPVIHASMRFFIRHQPENLTLVVLSRNLPQLGIANLRVRDQLLEIGSQQLAFTHQEAKQFFDCRLSSPIEAAESSRICDDVSGWATALQLIALSARQNTHSAHKSARRLAGINASHLSDYLVDEVLDNVDLATRHFLLKSAILRSMNDALITRVTGEENGQMRLEEIERQGLFLQRMDDTGEWFCYHPLFGNFLRQRCQWELAAELPEIHRAAAESWMAQGFPSEAIHHALAAGDALMLRDILLNHAWSLFNHSELSLLEESLKALPWDSLLENPQLVLLQAWLMQSQHRYGEVNTLLARAEHEIKDIREDTMHAEFNALRAQVAINDGNPDEAERLAKLALEELPPGWFYSRIVATSVLGEVLHCKGELTRSLALMQQTEQMARQHDVWHYALWSLIQQSEILFAQGFLQTAWETQEKAFQLINEQHLEQLPMHEFLVRIRAQLLWAWARLDEAEASARSGIEVLSSYQPQQQLQCLAMLIQCSLARGDLDNARSQLNRLENLLGNGKYHSDWISNANKVRVIYWQMTGDKAAAANWLRHTAKPEFANNHFLQGQWRNIARAQILLGEFEPAEIVLEELNENARSLRLMSDLNRNLLLLNQLYWQAGRKSDAQRVLLDALKLANRTGFISHFVIEGEAMAQQLRQLIQLNTLPELEQHRAQRILREINQHHRHKFAHFDENFVERLLNHPEVPELIRTSPLTQREWQVLGLIYSGYSNEQIAGELEVAATTIKTHIRNLYQKLGVAHRQDAVQHAQQLLKMMGYGV
notes: MalT of Escherichia coli, variant of plasmid pOM206 made by site-directed mutagenesis; source: E. coli BL21 (DE3) ΔmalT220, purified (Ni Sepharose, gel filtration)
Question: Does B1 bind?
Answer: binds

B2: MalT-S5L, N-terminally His-tagged (natural protein, Escherichia coli, UniProt P06993 1-901, looked up)
chain: MLIPLKLSRPVRLDHTVVRERLLAKLSGANNFRLALITSPAGYGKTTLISQWAAGKNDIGWYSLDEGDNQQERFASYLIAAVQQATNGHCAICETMAQKRQYASLTSLFAQLFIELAEWHSPLYLVIDDYHLITNPVIHESMRFFIRHQPENLTLVVLSRNLPQLGIANLRVRDQLLEIGSQQLAFTHQEAKQFFDCRLSSPIEAAESSRICDDVSGWATALQLIALSARQNTHSAHKSARRLAGINASHLSDYLVDEVLDNVDLATRHFLLKSAILRSMNDALITRVTGEENGQMRLEEIERQGLFLQRMDDTGEWFCYHPLFGNFLRQRCQWELAAELPEIHRAAAESWMAQGFPSEAIHHALAAGDALMLRDILLNHAWSLFNHSELSLLEESLKALPWDSLLENPQLVLLQAWLMQSQHRYGEVNTLLARAEHEIKDIREDTMHAEFNALRAQVAINDGNPDEAERLAKLALEELPPGWFYSRIVATSVLGEVLHCKGELTRSLALMQQTEQMARQHDVWHYALWSLIQQSEILFAQGFLQTAWETQEKAFQLINEQHLEQLPMHEFLVRIRAQLLWAWARLDEAEASARSGIEVLSSYQPQQQLQCLAMLIQCSLARGDLDNARSQLNRLENLLGNGKYHSDWISNANKVRVIYWQMTGDKAAAANWLRHTAKPEFANNHFLQGQWRNIARAQILLGEFEPAEIVLEELNENARSLRLMSDLNRNLLLLNQLYWQAGRKSDAQRVLLDALKLANRTGFISHFVIEGEAMAQQLRQLIQLNTLPELEQHRAQRILREINQHHRHKFAHFDENFVERLLNHPEVPELIRTSPLTQREWQVLGLIYSGYSNEQIAGELEVAATTIKTHIRNLYQKLGVAHRQDAVQHAQQLLKMMGYGV
notes: as for B1
Question: Does B2 bind?
Answer: binds

B3: MalT-S8A, N-terminally His-tagged (natural protein, Escherichia coli, UniProt P06993 1-901, looked up)
chain: MLIPSKLARPVRLDHTVVRERLLAKLSGANNFRLALITSPAGYGKTTLISQWAAGKNDIGWYSLDEGDNQQERFASYLIAAVQQATNGHCAICETMAQKRQYASLTSLFAQLFIELAEWHSPLYLVIDDYHLITNPVIHESMRFFIRHQPENLTLVVLSRNLPQLGIANLRVRDQLLEIGSQQLAFTHQEAKQFFDCRLSSPIEAAESSRICDDVSGWATALQLIALSARQNTHSAHKSARRLAGINASHLSDYLVDEVLDNVDLATRHFLLKSAILRSMNDALITRVTGEENGQMRLEEIERQGLFLQRMDDTGEWFCYHPLFGNFLRQRCQWELAAELPEIHRAAAESWMAQGFPSEAIHHALAAGDALMLRDILLNHAWSLFNHSELSLLEESLKALPWDSLLENPQLVLLQAWLMQSQHRYGEVNTLLARAEHEIKDIREDTMHAEFNALRAQVAINDGNPDEAERLAKLALEELPPGWFYSRIVATSVLGEVLHCKGELTRSLALMQQTEQMARQHDVWHYALWSLIQQSEILFAQGFLQTAWETQEKAFQLINEQHLEQLPMHEFLVRIRAQLLWAWARLDEAEASARSGIEVLSSYQPQQQLQCLAMLIQCSLARGDLDNARSQLNRLENLLGNGKYHSDWISNANKVRVIYWQMTGDKAAAANWLRHTAKPEFANNHFLQGQWRNIARAQILLGEFEPAEIVLEELNENARSLRLMSDLNRNLLLLNQLYWQAGRKSDAQRVLLDALKLANRTGFISHFVIEGEAMAQQLRQLIQLNTLPELEQHRAQRILREINQHHRHKFAHFDENFVERLLNHPEVPELIRTSPLTQREWQVLGLIYSGYSNEQIAGELEVAATTIKTHIRNLYQKLGVAHRQDAVQHAQQLLKMMGYGV
notes: as for B1
Question: Does B3 bind?
Answer: binds

B4: MalT-N169A, N-terminally His-tagged (natural protein, Escherichia coli, UniProt P06993 1-901, looked up)
chain: MLIPSKLSRPVRLDHTVVRERLLAKLSGANNFRLALITSPAGYGKTTLISQWAAGKNDIGWYSLDEGDNQQERFASYLIAAVQQATNGHCAICETMAQKRQYASLTSLFAQLFIELAEWHSPLYLVIDDYHLITNPVIHESMRFFIRHQPENLTLVVLSRNLPQLGIAALRVRDQLLEIGSQQLAFTHQEAKQFFDCRLSSPIEAAESSRICDDVSGWATALQLIALSARQNTHSAHKSARRLAGINASHLSDYLVDEVLDNVDLATRHFLLKSAILRSMNDALITRVTGEENGQMRLEEIERQGLFLQRMDDTGEWFCYHPLFGNFLRQRCQWELAAELPEIHRAAAESWMAQGFPSEAIHHALAAGDALMLRDILLNHAWSLFNHSELSLLEESLKALPWDSLLENPQLVLLQAWLMQSQHRYGEVNTLLARAEHEIKDIREDTMHAEFNALRAQVAINDGNPDEAERLAKLALEELPPGWFYSRIVATSVLGEVLHCKGELTRSLALMQQTEQMARQHDVWHYALWSLIQQSEILFAQGFLQTAWETQEKAFQLINEQHLEQLPMHEFLVRIRAQLLWAWARLDEAEASARSGIEVLSSYQPQQQLQCLAMLIQCSLARGDLDNARSQLNRLENLLGNGKYHSDWISNANKVRVIYWQMTGDKAAAANWLRHTAKPEFANNHFLQGQWRNIARAQILLGEFEPAEIVLEELNENARSLRLMSDLNRNLLLLNQLYWQAGRKSDAQRVLLDALKLANRTGFISHFVIEGEAMAQQLRQLIQLNTLPELEQHRAQRILREINQHHRHKFAHFDENFVERLLNHPEVPELIRTSPLTQREWQVLGLIYSGYSNEQIAGELEVAATTIKTHIRNLYQKLGVAHRQDAVQHAQQLLKMMGYGV
notes: as for B1
Question: Does B4 bind?
Answer: binds

B5: MalT-R143A, N-terminally His-tagged (natural protein, Escherichia coli, UniProt P06993 1-901, looked up)
chain: MLIPSKLSRPVRLDHTVVRERLLAKLSGANNFRLALITSPAGYGKTTLISQWAAGKNDIGWYSLDEGDNQQERFASYLIAAVQQATNGHCAICETMAQKRQYASLTSLFAQLFIELAEWHSPLYLVIDDYHLITNPVIHESMAFFIRHQPENLTLVVLSRNLPQLGIANLRVRDQLLEIGSQQLAFTHQEAKQFFDCRLSSPIEAAESSRICDDVSGWATALQLIALSARQNTHSAHKSARRLAGINASHLSDYLVDEVLDNVDLATRHFLLKSAILRSMNDALITRVTGEENGQMRLEEIERQGLFLQRMDDTGEWFCYHPLFGNFLRQRCQWELAAELPEIHRAAAESWMAQGFPSEAIHHALAAGDALMLRDILLNHAWSLFNHSELSLLEESLKALPWDSLLENPQLVLLQAWLMQSQHRYGEVNTLLARAEHEIKDIREDTMHAEFNALRAQVAINDGNPDEAERLAKLALEELPPGWFYSRIVATSVLGEVLHCKGELTRSLALMQQTEQMARQHDVWHYALWSLIQQSEILFAQGFLQTAWETQEKAFQLINEQHLEQLPMHEFLVRIRAQLLWAWARLDEAEASARSGIEVLSSYQPQQQLQCLAMLIQCSLARGDLDNARSQLNRLENLLGNGKYHSDWISNANKVRVIYWQMTGDKAAAANWLRHTAKPEFANNHFLQGQWRNIARAQILLGEFEPAEIVLEELNENARSLRLMSDLNRNLLLLNQLYWQAGRKSDAQRVLLDALKLANRTGFISHFVIEGEAMAQQLRQLIQLNTLPELEQHRAQRILREINQHHRHKFAHFDENFVERLLNHPEVPELIRTSPLTQREWQVLGLIYSGYSNEQIAGELEVAATTIKTHIRNLYQKLGVAHRQDAVQHAQQLLKMMGYGV
notes: as for B1
Question: Does B5 bind?
Answer: binds

B6: MalT-R173A, N-terminally His-tagged (natural protein, Escherichia coli, UniProt P06993 1-901, looked up)
chain: MLIPSKLSRPVRLDHTVVRERLLAKLSGANNFRLALITSPAGYGKTTLISQWAAGKNDIGWYSLDEGDNQQERFASYLIAAVQQATNGHCAICETMAQKRQYASLTSLFAQLFIELAEWHSPLYLVIDDYHLITNPVIHESMRFFIRHQPENLTLVVLSRNLPQLGIANLRVADQLLEIGSQQLAFTHQEAKQFFDCRLSSPIEAAESSRICDDVSGWATALQLIALSARQNTHSAHKSARRLAGINASHLSDYLVDEVLDNVDLATRHFLLKSAILRSMNDALITRVTGEENGQMRLEEIERQGLFLQRMDDTGEWFCYHPLFGNFLRQRCQWELAAELPEIHRAAAESWMAQGFPSEAIHHALAAGDALMLRDILLNHAWSLFNHSELSLLEESLKALPWDSLLENPQLVLLQAWLMQSQHRYGEVNTLLARAEHEIKDIREDTMHAEFNALRAQVAINDGNPDEAERLAKLALEELPPGWFYSRIVATSVLGEVLHCKGELTRSLALMQQTEQMARQHDVWHYALWSLIQQSEILFAQGFLQTAWETQEKAFQLINEQHLEQLPMHEFLVRIRAQLLWAWARLDEAEASARSGIEVLSSYQPQQQLQCLAMLIQCSLARGDLDNARSQLNRLENLLGNGKYHSDWISNANKVRVIYWQMTGDKAAAANWLRHTAKPEFANNHFLQGQWRNIARAQILLGEFEPAEIVLEELNENARSLRLMSDLNRNLLLLNQLYWQAGRKSDAQRVLLDALKLANRTGFISHFVIEGEAMAQQLRQLIQLNTLPELEQHRAQRILREINQHHRHKFAHFDENFVERLLNHPEVPELIRTSPLTQREWQVLGLIYSGYSNEQIAGELEVAATTIKTHIRNLYQKLGVAHRQDAVQHAQQLLKMMGYGV
notes: as for B1
Question: Does B6 bind?
Answer: binds
